Experimental data from PMC2871463 (The Journal of Biological Chemistry, 2010).
Blank lines part the entries; values can stand above or below the binder they belong to.

Legend:
[1] = target: T1, bone morphogenetic protein-1 (BMP-1), recombinant human (human, UniProt P13497-2 121-730); assay: SPR
T1 sequence (looked up): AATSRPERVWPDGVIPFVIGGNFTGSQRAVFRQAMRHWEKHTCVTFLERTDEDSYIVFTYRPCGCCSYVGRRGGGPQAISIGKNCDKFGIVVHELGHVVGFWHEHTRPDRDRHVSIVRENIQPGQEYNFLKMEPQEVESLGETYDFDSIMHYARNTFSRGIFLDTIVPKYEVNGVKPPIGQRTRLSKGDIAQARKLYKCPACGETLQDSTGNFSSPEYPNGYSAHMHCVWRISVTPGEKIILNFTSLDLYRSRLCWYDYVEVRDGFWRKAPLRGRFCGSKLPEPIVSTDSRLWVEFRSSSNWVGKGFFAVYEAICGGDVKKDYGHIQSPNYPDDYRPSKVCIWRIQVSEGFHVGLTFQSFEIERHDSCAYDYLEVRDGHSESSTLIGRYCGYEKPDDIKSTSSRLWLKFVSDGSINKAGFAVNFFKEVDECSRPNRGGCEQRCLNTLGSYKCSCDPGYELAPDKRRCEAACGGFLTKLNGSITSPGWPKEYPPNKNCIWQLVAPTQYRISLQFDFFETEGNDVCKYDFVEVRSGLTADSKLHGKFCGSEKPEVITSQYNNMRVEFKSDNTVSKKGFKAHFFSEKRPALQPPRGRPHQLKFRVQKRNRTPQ

[2] = target: T2, matrix metalloproteinase-2 (MMP-2), recombinant human (human, UniProt P08253 30-660); assay: SPR
T2 sequence (looked up): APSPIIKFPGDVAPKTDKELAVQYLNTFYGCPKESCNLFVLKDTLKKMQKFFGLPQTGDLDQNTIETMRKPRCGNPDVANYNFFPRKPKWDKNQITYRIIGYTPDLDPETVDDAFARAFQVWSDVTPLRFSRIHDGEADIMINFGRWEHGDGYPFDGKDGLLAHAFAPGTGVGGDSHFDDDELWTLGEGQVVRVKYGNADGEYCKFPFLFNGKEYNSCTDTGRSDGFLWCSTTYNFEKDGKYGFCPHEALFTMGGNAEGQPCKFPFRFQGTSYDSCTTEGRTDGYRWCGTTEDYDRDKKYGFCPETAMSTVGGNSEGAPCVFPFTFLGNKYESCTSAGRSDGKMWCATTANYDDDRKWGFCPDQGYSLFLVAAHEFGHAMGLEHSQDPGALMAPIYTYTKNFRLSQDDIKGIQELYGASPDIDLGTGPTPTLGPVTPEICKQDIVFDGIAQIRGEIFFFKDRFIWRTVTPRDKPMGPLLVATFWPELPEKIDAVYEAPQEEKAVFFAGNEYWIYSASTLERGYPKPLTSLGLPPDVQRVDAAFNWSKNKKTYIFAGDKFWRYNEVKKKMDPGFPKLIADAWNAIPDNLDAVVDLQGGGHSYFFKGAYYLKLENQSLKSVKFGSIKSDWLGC

- KD of site 1 (two binding sites model) [1]: 129 ± 19 nM
- KD of site 2 (two binding sites model) [1]: 5200 ± 500 nM
B1: procollagen C-proteinase enhancer-1 (PCPE-1), full-length, recombinant human (natural protein, UniProt Q15113 26-449, looked up)
chain: QTPNYTRPVFLCGGDVKGESGYVASEGFPNLYPPNKECIWTITVPEGQTVSLSFRVFDLELHPACRYDALEVFAGSGTSGQRLGRFCGTFRPAPLVAPGNQVTLRMTTDEGTGGRGFLLWYSGRATSGTEHQFCGGRLEKAQGTLTTPNWPESDYPPGISCSWHIIAPPDQVIALTFEKFDLEPDTYCRYDSVSVFNGAVSDDSRRLGKFCGDAVPGSISSEGNELLVQFVSDLSVTADGFSASYKTLPRGTAKEGQGPGPKRGTEPKVKLPPKSQPPEKTEESPSAPDAPTCPKQCRRTGTLQSNFCASSLVVTATVKSMVREPGEGLAVTVSLIGAYKTGGLDLPSPPTGASLKFYVPCKQCPPMKKGVSYLLMGQVEENRGPVLPPESFVVLHRPNQDQILTNLSKRKCPSQPVRAAASQD

- Kd [2]: ≥ 1000 nM
B2: NTRshort (NTRs), short form of the netrin-like (NTR) domain of human PCPE-1 starting at Cys318 (domain or fragment, UniProt Q15113 318-449, looked up)
chain: CPKQCRRTGTLQSNFCASSLVVTATVKSMVREPGEGLAVTVSLIGAYKTGGLDLPSPPTGASLKFYVPCKQCPPMKKGVSYLLMGQVEENRGPVLPPESFVVLHRPNQDQILTNLSKRKCPSQPVRAAASQD
